Data taken from publication PMC2901266.

Key:
[1] = biological target: ToLCKeV MBP-AC3 fusion protein (Tomato leaf curl Kerala virus-[India:Kerala II:2005]); assay: sucrose gradient ultracentrifugation + SEC; 10-40% (w/v) sucrose step gradient, 25 mM Tris (pH 8.0), 250 mM NaCl, 2 mM sodium bisulphite, 0.05% Triton X-100, 35,000 rpm 20 h 4°C, against mass markers; gel filtration on Superdex 200 5/150
[2] = biological target: ToLCKeV MBP-AC1 fusion protein (replication initiator protein, Rep) (Tomato leaf curl Kerala virus-[India:Kerala II:2005])

ToLCKeV MBP-AC3 fusion protein (natural protein)
stoichiometry N [1]: 12 to 14 mer | ATPase activity of AC1 (Rep), release of Pi from [gamma-32P]ATP, with varying MBP-AC3 (increase at 0.02-0.2 pM, reduced at higher AC3: bell shaped curve); increase over Rep alone set as 100% [2]: 80%
